Read-outs that look alike come from different tables or passages of the source.
Tests used:
[1] = molecular target: Ld class I major histocompatibility complex molecule (30-5-7+ Ld) (mouse); assay: co-IP
[2] = molecular target: Ld class I major histocompatibility complex molecule (30-5-7+ Ld) (mouse); assay: co-IP; remark: listed apart in the source

Ld class I major histocompatibility complex molecule (30-5-7+ Ld) (mouse), sequence (P01897 25-362, one chain of several): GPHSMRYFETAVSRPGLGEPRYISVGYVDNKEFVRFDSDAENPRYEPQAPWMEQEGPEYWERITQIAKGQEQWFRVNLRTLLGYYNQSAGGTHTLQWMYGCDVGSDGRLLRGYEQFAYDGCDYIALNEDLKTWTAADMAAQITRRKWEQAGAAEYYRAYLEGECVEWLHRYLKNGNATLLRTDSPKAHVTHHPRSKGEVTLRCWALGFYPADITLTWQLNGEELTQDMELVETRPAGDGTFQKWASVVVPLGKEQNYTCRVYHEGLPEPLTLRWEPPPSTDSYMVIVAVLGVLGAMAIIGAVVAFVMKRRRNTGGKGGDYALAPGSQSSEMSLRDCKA

## MCMV pp89 168-176 peptide
[1]
  pellet cpm (bound peptide): 7630 cpm
  percent precipitable counts: 80%
[2]
  percent precipitable counts: 98%
